Assay results reported in US20140072613A1 (published 2014).

Legend:
Assay in all cases: cell-based or functional assay
PhKγ2(h) = target: T1, PhKγ2(h) (human, UniProt P15735 1-406)
T1 sequence (looked up): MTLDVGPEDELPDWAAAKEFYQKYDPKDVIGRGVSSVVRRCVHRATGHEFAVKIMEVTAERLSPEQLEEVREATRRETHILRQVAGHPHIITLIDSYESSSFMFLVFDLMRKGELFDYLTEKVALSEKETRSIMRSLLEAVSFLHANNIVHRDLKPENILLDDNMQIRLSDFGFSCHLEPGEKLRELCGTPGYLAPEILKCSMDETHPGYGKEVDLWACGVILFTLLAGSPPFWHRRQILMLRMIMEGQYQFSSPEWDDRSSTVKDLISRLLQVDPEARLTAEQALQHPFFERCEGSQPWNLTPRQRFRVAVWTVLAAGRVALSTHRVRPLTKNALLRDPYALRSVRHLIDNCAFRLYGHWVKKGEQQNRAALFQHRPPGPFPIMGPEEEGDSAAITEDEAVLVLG

CDK6/cyclinD3(h) = CDK6/cyclinD3(h) (human, UniProt Q00534 1-326; P30281 1-292)
CDK6/cyclinD3(h), sequence (Q00534 whole entry, chain 1 of 2): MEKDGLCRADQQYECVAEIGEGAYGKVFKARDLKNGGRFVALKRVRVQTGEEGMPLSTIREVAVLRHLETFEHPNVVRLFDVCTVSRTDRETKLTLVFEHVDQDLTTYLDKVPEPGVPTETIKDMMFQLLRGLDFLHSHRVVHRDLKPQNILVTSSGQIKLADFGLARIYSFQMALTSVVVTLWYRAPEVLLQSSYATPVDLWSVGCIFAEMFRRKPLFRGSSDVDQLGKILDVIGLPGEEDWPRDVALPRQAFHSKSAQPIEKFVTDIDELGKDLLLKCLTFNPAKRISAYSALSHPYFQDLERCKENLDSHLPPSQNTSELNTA
CDK6/cyclinD3(h), sequence (P30281 whole entry, chain 2 of 2): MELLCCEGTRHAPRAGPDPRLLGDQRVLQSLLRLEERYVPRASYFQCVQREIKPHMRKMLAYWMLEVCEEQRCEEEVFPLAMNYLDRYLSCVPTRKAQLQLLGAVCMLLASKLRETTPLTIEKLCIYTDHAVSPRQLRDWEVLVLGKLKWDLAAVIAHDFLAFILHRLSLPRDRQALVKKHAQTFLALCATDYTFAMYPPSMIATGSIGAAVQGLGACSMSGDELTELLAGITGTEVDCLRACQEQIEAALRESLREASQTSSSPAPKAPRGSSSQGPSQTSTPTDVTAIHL

BrSK2(h) = target: T2, BrSK2(h) (human, UniProt Q8IWQ3 1-736, limits assumed)
T2 sequence (looked up): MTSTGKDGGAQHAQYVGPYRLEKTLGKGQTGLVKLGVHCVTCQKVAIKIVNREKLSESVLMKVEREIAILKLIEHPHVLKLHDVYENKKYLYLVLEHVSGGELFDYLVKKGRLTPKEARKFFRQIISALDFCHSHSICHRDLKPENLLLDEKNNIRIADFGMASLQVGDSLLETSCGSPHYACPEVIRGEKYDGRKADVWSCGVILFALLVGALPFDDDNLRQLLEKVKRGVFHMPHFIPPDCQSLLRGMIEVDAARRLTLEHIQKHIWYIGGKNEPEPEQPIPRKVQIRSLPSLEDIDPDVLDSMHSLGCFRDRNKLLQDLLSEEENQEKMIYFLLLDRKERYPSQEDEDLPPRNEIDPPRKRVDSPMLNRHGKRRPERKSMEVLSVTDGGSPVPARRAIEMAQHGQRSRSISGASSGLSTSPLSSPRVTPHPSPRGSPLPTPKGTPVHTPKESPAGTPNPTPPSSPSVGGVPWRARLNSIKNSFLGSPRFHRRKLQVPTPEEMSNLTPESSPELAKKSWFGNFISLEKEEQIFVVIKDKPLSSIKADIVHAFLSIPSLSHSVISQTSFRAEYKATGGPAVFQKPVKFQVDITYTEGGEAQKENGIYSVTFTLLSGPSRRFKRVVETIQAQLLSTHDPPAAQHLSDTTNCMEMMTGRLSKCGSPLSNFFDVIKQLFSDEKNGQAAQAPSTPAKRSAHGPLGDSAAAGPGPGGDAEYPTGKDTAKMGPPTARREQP

MAPKAP-K3(h) = MAPKAP-K3(h) (human, UniProt Q16644 1-382, limits assumed)
MAPKAP-K3(h), sequence (Q16644 whole entry): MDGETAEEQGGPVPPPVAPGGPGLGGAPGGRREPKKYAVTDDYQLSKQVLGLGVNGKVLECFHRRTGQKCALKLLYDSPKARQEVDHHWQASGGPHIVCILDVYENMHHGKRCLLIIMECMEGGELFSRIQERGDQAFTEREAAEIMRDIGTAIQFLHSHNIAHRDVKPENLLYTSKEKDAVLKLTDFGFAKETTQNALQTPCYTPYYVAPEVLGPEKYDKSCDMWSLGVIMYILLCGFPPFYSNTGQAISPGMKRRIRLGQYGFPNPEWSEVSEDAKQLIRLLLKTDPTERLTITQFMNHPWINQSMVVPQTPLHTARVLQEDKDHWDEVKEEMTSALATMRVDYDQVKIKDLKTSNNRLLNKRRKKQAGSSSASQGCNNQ

PKCα(h) = PKCα(h) (human, UniProt P17252 1-672)
EphA8(h) = target: T3, EphA8(h) (human, UniProt P29322 564-1005, limits assumed)
T3 sequence (looked up): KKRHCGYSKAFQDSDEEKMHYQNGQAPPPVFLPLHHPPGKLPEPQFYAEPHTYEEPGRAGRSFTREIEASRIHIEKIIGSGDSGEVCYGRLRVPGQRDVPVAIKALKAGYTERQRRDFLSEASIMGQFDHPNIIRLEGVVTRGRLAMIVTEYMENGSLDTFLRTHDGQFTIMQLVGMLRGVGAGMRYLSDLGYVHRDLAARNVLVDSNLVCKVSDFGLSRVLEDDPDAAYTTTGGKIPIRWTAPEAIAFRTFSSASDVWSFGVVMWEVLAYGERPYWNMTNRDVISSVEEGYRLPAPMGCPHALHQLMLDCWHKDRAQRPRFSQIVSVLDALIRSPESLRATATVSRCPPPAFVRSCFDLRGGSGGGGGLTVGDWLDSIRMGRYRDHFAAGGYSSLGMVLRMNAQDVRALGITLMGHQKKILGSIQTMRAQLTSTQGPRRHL

NEK7(h) = NEK7(h) (human, UniProt Q8TDX7 1-302)
NEK7(h), sequence (Q8TDX7 whole entry): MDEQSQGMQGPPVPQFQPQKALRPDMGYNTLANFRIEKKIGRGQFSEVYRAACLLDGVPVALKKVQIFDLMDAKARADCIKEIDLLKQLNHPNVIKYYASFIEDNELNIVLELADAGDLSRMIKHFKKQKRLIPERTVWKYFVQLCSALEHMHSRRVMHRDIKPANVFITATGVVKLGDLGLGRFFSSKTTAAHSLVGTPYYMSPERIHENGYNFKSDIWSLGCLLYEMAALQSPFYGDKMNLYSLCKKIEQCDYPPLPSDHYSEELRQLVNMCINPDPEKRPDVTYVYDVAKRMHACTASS

ALK(h) = ALK(h) (human, UniProt Q9UM73 1058-1620, limits assumed)
ALK(h), sequence (Q9UM73 1058-1620 limits assumed): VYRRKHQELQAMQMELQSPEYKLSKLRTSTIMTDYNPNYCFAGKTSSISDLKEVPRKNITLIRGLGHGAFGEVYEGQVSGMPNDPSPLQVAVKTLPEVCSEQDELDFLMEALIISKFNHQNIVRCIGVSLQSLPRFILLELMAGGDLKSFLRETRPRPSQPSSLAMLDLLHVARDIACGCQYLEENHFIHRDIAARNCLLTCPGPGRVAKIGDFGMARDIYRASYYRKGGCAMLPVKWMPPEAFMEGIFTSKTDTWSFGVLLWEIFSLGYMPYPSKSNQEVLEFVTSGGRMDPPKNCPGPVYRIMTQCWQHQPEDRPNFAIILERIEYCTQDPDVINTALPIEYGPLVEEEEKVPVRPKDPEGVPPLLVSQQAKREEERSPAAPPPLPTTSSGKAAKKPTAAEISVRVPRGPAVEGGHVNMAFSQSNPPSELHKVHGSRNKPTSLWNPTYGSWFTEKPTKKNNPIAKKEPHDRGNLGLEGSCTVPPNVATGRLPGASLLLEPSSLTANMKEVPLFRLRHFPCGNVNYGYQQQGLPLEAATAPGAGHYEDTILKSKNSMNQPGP

MINK(h) = MINK(h) (human, UniProt Q8N4C8 1-320, limits assumed)
MINK(h), sequence (Q8N4C8 1-320 limits assumed): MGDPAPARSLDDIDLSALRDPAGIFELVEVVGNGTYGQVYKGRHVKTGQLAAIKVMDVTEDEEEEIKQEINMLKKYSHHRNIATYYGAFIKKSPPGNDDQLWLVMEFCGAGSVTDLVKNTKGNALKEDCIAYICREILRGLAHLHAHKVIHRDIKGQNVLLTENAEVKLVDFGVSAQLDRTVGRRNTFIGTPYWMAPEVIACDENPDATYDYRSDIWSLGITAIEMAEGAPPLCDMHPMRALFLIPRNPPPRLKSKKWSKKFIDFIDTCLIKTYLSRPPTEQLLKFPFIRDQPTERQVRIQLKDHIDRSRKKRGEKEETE

ULK2(h) = target: T4, ULK2(h) (human, UniProt Q8IYT8 1-631, limits assumed)
T4 sequence (looked up): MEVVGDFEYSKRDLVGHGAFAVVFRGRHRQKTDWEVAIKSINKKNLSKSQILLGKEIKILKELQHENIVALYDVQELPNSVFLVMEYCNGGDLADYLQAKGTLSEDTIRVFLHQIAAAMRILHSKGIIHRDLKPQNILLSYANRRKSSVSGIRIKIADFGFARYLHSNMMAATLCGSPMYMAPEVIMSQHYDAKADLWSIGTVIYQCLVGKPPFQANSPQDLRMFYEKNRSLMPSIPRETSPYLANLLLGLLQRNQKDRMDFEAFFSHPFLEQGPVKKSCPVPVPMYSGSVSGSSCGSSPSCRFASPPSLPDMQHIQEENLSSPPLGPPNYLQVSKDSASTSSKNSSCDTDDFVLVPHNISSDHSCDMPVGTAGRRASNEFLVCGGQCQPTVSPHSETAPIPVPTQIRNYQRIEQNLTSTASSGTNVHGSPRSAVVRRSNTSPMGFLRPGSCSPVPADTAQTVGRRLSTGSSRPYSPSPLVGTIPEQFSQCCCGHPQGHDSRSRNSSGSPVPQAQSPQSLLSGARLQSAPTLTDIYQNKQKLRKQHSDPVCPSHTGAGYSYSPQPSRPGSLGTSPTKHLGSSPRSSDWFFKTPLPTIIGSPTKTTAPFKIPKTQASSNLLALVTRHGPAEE

Binder	% activity, 100 µM (PhKγ2(h))	% activity, 100 µM (CDK6/cyclinD3(h))	% activity, 100 µM (BrSK2(h))	% activity, 100 µM (MAPKAP-K3(h))	% activity, 100 µM (PKCα(h))	% activity, 100 µM (EphA8(h))	% activity, 100 µM (NEK7(h))	% activity, 100 µM (ALK(h))	% activity, 100 µM (MINK(h))	% activity, 100 µM (ULK2(h))
KAFAKLAARLYRKALARQLGVAA [MMI-0400]	38%	85%	86%	7%	86%	146%	87%	16%	52%	131%
FAKLAARLYRKALARQLGVAA [MMI-0300]	46%	86%	83%	3%	89%	93%	84%	19%	48%	122%
